# Assay results published in patent publication US20200325187A1 (Genentech, published 2020).
# Numbering of substitutions follows the chain as printed.
# T1: hVEGF-A (8-109) (human, UniProt P15692 214-315)
# T1 sequence (looked up): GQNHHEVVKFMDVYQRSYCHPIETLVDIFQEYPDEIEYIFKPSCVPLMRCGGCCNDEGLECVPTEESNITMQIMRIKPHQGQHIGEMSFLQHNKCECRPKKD
# T2: LRP6 E1E2 protein (human, UniProt O75581 20-630, limits assumed)
# T2 construct: domain: E1E2
# T2 sequence (looked up): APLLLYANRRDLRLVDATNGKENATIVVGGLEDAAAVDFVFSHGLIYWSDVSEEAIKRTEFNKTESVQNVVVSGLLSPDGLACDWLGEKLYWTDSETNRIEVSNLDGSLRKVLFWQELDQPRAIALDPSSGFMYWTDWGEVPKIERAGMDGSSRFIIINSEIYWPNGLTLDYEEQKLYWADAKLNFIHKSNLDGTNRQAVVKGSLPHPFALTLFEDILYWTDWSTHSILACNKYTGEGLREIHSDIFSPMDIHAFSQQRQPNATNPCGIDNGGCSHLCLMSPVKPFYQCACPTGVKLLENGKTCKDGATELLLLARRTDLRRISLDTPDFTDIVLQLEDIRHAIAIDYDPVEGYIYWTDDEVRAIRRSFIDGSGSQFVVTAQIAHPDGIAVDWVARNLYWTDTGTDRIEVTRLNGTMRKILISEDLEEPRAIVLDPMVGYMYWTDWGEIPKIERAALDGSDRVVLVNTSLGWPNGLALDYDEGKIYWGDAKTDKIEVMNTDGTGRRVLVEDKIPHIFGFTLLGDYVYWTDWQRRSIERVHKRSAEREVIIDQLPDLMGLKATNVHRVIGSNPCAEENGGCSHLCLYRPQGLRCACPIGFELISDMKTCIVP
# B1: VEGF_CKP7.81 (designed binder)
# chain: GCLDPTVNWALFCKQDSDCLAGCVCQHYKTCG
# B2: VEGF_CKP7.73 (designed binder)
# chain: GCRDLTINWALFCKQDSDCLAGCVCQMFNSCG
# B3: LRP6_CKP7.89 (designed binder)
# chain: GCLDPSFDWALYCKQDSDCLAGCVCQLYNSCG
# B4: VEGF_CKP7.8 (designed binder)
# chain: GCKNPLFNWALYCKQDSDCLAGCVCQLFDSCG
# B5: VEGF_CKP7.88 (designed binder)
# chain: GCQDPKLNWAVYCKQDSDCLAGCVCQLFNSCG
# B6: VEGF_CKP7.2 (designed binder)
# chain: GCDDPSFDWSVYCKQDSDCLAGCVCRMYDSCG
# B7: VEGF_CKP7.54 (designed binder)
# chain: GCLDRTLNWALYCKQDSDCLAGCVCQMYNSCG
# B8: VEGF_CKP7.17 (designed binder)
# chain: GCQDPTVNWAVYCKQDSDCLAGCVCQFYQSCG
# B9: VEGF_CKP7.46 (designed binder)
# chain: B8 chain with Q3E, N8D, V11Q, F27M
# B10: VEGF_CKP7.19 (designed binder)
# chain: B8 chain with V7F, V11E, F27L
# B11: VEGF_CKP7.35 (designed binder)
# chain: B8 chain with V7F, V11E, F27M
# B12: VEGF_CKP7.57 (designed binder)
# chain: B6 chain with D3L, D8N, V11L, R26Q
# B13: VEGF_CKP7.50 (designed binder)
# chain: GCQDPSLNWADYCKQDSDCLAGCVCQMHQSCG
# B14: VEGF_CKP7.24 (designed binder)
# chain: B7 chain with L3W, R5P, L7F, N29D
# B15: VEGF_CKP7.43 (designed binder)
# chain: B13 chain with S6T, D11T, H28Y
# B16: VEGF_CKP7.78 (designed binder)
# chain: GCKDTTFNWGLFCKQDSDCLAGCVCQLYQSCG
# B17: VEGF_CKP9.L1.2 (designed binder)
# chain: GCHLFEPLWGCKQDSDCLAGCVCHWYQSCG
# B18: VEGF_CKP9.L1.8 (designed binder)
# chain: GCQVMQPAWGCKQDSDCLAGCVCHWYQSCG
# B19: VEGF_CKP9.L1.57 (designed binder)
# chain: GCNPMLPFWGCKQDSDCLAGCVCHWYQSCG
# B20: VEGF_CKP9.L1.78 (designed binder)
# chain: B19 chain with F8L
# B21: VEGF_CKP9.L1.76 (designed binder)
# chain: B17 chain with H3D, F5M, E6Q
# B22: VEGF_CKP9.L1.7 (designed binder)
# chain: B18 chain with Q6R, A8F
# B23: VEGF_CKP9.L1.68 (designed binder)
# chain: B18 chain with Q3D, V4I, A8L
# B24: VEGF_CKP9.L1.79 (designed binder)
# chain: B18 chain with M5L, A8S
# B25: VEGF_CKP9.L1.19 (designed binder)
# chain: B17 chain with L4R, F5L, E6Q
# B26: VEGF_CKP9.L1.64 (designed binder)
# chain: B19 chain with P4V, M5L, F8L
# B27: VEGF_CKP9.11 (designed binder)
# chain: GCDRMQPYWGCKQDSDCLAGCVCQWYKSCG
# B28: VEGF_CKP9.47 (designed binder)
# chain: GCKIMQPLWGCKQDSDCLAGCVCLWYDSCG
# B29: VEGF_CKP9.72 (designed binder)
# chain: GCRLLEPSWGCKQDSDCLAGCVCQWYQSCG
# B30: VEGF_CKP9.71 (designed binder)
# chain: GCQLLQPLWGCKQDSDCLAGCVCRWYQSCG
# B31: VEGF_CKP9.51 (designed binder)
# chain: B19 chain with P4L, L6H
# B32: VEGF_CKP9.14 (designed binder)
# chain: B30 chain with Q3K, L8M
# B33: VEGF_CKP9.76 (designed binder)
# chain: B30 chain with Q3H, Q6L, Q27H
# B34: VEGF_CKP9.69 (designed binder)
# chain: B30 chain with Q3A, Q27N
# B35: VEGF_CKP9.9 (designed binder)
# chain: GCQLLEPMWGCKQDSDCLAGCVCHWYNSCG
# B36: LRP6_CKP11 (designed binder)
# chain: GCRSNRIRCKQDSDCLAGCVCYGHGDCG
# B37: LRP6_CKP14 (designed binder)
# chain: GCGSNKIRPRCKQDSDCLAGCVCGPNDFCG
# B38: LRP6_CKP21 (designed binder)
# chain: GCGNKIRACKQDSDCLAGCVCRDRVGCG
# B39: LRP6_CKP22 (designed binder)
# chain: GCANRVKRTSCKQDSDCLAGCVCGPNGFCG
# B40: LRP6_CKP17 (designed binder)
# chain: GCSNYVKRCKQDSDCLAGCVCSPGGRCG
# B41: LRP6_CKP15 (designed binder)
# chain: GCNRIRNSCKQDSDCLAGCVCGRGDYCG
# B42: LRP6_CKP16 (designed binder)
# chain: GCSRNSIKCKQDSDCLAGCVCASGSSCG
# B43: LRP6_CKP12 (designed binder)
# chain: GCRSNKLREARGCKQDSDCLAGCVCGSRQDCG
# B44: LRP6_CKP20 (designed binder)
# chain: GCENRTKGCKQDSDCLAGCVCGFRGTCG
# B45: LRP6_CKP13 (designed binder)
# chain: GCVNSVKRCKQDSDCLAGCVCSRGVNCG
# Target: T1, hVEGF-A (8-109)
# Assay: spot phage ELISA
# Experimental: (§1) After four rounds of binding selection, individual phage clones were picked and inoculated into 450 μl 2YT media containing 50 µg/ml Carbenecillin and M13-KO7 helper phage in 96-well blocks, which were grown at 37° C. overnight. […] The plates were washed and bound phage was detected with anti-M13-HRP followed by TMB substrate. In these assays, phage binding to BSA alone was tested in parallel to assess background binding. […] Positive clones were subjected to DNA sequence analysis.
Binder,ELISA,S/N vs BSA
B1,1.1,18.6
B2,1.2,19.2
B3,0.5,8.1
B4,0.5,7.5
B5,0.5,7.7
B6,1.2,21.5
B7,0.5,9.3
B8,0.8,13.4
B9,0.3,4.9
B10,0.6,11.1
B11,0.6,10.6
B12,1,17.4
B13,0.8,14.3
B14,0.8,13.4
B15,0.5,6.3
B16,0.7,11.8

# Target: T1, hVEGF-A (8-109)
# Assay: spot phage ELISA
# Remark: another data set of the same source
# Experimental: as §1
Binder,ELISA,S/N vs BSA
B17,1.6,12.5
B18,1.2,12.8
B19,3.7,31.8
B20,3,25.1
B21,2.5,17.4
B22,1.5,8.9
B23,2,23.2
B24,1.2,10
B25,1.4,11.6
B26,2.3,19.9

# Target: T1, hVEGF-A (8-109)
# Assay: spot phage ELISA
# Remark: another data set of the same source
# Experimental: as §1
Binder,ELISA,S/N vs BSA
B27,1.1,14.1
B28,1,14.6
B29,0.6,10
B30,1,16.5
B31,1,11
B32,2,30.1
B33,1.3,15.5
B34,1,14.3
B35,1.1,19.7

# Target: T2, LRP6 E1E2 protein
# Assay: spot phage ELISA
Binder,ELISA,S/N vs BSA
B36,2.65,36.8
B37,3.18,43.5
B38,2.8,33.7
B39,3.43,42.9
B40,3.09,35.9
B41,2.03,26.3
B42,3.36,31.1
B43,0.6,6.78
B44,3.1,38.7
B45,3.28,37.8
